The results in this text go back to patent publication US20230272020A1 (MEDICAL RESEARCH AND DEVELOPMENT FUND FOR HEALTH SERVICES …, published 2023).

Assay [1] concerns the target T1, neuropilin-1 receptor (human, UniProt O14786 22-923).
T1 construct: whole, on cells; Endogenous receptor on human cells; also called Nrp1; nrp1
In words: Sema3A-AP on parental U87MG cells expressing Nrp1, alkaline phosphatase colorimetric assay.

Assay [2] addresses T2, WT-Sema3A with C-terminal His tag (human, UniProt Q14563 21-771, limits assumed).
T2 construct: also called wild type Sema3A; WT-Sema3A peptide; not shown: C-terminal His tag
T2 sequence: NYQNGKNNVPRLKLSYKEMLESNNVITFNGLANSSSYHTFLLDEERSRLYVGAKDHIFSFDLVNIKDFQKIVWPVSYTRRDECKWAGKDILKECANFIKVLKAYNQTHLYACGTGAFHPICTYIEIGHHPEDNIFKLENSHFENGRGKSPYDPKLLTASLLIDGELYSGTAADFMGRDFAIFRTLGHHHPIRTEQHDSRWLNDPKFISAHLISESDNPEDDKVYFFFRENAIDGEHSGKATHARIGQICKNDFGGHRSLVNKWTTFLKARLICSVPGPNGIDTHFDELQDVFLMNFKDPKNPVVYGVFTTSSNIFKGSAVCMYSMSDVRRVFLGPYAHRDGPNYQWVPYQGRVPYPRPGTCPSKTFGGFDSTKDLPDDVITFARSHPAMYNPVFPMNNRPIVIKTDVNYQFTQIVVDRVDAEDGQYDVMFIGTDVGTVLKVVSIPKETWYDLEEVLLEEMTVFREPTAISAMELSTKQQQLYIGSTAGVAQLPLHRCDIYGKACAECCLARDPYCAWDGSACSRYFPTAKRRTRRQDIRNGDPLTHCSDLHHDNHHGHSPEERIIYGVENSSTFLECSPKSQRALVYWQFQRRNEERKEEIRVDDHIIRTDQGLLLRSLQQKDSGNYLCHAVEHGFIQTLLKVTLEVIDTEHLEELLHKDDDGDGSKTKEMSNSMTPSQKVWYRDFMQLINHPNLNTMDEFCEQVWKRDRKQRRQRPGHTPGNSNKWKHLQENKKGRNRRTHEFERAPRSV
In words: inferred by the filing from the phosphorylation assay in BLCL versus BLCL+CD72 cells. Here is the method: Cells were serum starved for 16 h. At the day of the experiment, cells were activated with 5 μg/ml anti IgM for 5 min at 37° C. and then 10 μg/ml of Sema3A or elution buffer as a control were added for extra 10 min at 37° C. The experiment was terminated by a wash with ice cold PBS and lysed with phosphorylation lysis buffer (50 mM Tris-HCl pH-7.5, 150 mM NaCl, 2 mM EDTA, 2 mM EGTA, 5 mM NaF, 2 mM Na₃VO₄, 10 mM Na₄P₂O₇, 1% Triton X-100). 80 μg of proteins were subjected to SDS-PAGE and immunoblotted with an antibody directed against phosphorylated target protein, the blot was then stripped and re-probed with an antibody directed against total protein. Western blots were probed with the following antibodies: anti STAT4 (C-4) (Santa Cruz Biotechnology), anti phospho-STAT4 (Tyr693) (Santa Cruz Biotechnology), p38 MAPK Antibody (Cell Signaling Technology, Inc), Phospho-p38 MAPK (Thr180/Tyr182) Antibody (Cell Signaling Technology, Inc). Quantification of band intensity was performed using ImageQuant LAS 4000 program.
To test whether Sema3A signal transduction is mediated by CD72, Furthermore, CD72 was expressed in primary B-lymphoblastoid cells that lack neuropilin-1. […] Next, BLCL cells and BLCL cells expressing CD72 (BLCL+CD72) were stimulated with WT-Sema3A peptide. The phosphorylation state of Stat-4 and P38 was than determined. […]

T1 sequence (O14786 22-923): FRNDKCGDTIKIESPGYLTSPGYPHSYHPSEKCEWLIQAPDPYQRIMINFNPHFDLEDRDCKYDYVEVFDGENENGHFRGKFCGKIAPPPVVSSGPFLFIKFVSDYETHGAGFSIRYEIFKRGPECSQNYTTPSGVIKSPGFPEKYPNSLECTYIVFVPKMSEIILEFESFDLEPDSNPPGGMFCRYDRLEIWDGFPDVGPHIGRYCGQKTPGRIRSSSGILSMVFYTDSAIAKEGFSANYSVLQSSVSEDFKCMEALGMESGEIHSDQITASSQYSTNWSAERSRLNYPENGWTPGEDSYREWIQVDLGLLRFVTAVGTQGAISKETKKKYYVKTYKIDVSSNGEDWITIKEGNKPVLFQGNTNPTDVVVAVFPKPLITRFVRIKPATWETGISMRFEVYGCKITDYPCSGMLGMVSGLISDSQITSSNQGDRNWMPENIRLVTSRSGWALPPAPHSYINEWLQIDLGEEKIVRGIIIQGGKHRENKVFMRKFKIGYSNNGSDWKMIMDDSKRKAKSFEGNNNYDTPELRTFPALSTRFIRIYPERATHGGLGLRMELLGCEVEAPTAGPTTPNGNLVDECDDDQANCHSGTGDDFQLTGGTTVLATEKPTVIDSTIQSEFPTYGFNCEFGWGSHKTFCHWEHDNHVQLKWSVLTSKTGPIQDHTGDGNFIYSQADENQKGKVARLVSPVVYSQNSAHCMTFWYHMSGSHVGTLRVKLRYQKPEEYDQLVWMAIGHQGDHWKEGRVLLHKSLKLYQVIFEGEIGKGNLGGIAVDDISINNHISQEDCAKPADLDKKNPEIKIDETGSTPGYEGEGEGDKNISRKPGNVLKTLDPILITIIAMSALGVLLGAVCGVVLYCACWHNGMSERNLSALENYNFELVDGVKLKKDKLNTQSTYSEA

B1: Sema3A-AP (WT-Sema3A in frame with alkaline phosphatase) (ligand)
chain: T2 sequence
notes: Secreted by HEK293-Sema3A-AP cells and used as 50-fold concentrated conditioned medium; also called Sema3A-Alkaline Phosphatase; AP-Sema3A; not shown: alkaline phosphatase fused in frame
On to B1, for which the binding result in assay [1] is listed as “binds”.

B2: CD72 (full-length, untagged, on cells: BLCL-CD72 cells; CD4+ T cells) (receptor, human, UniProt P21854 1-359, looked up)
chain: MAEAITYADLRFVKAPLKKSISSRLGQDPGADDDGEITYENVQVPAVLGVPSSLASSVLGDKAAVKSEQPTASWRAVTSPAVGRILPCRTTCLRYLLLGLLLTCLLLGVTAICLGVRYLQVSQQLQQTNRVLEVTNSSLRQQLRLKITQLGQSAEDLQGSRRELAQSQEALQVEQRAHQAAEGQLQACQADRQKTKETLQSEEQQRRALEQKLSNMENRLKPFFTCGSADTCCPSGWIMHQKSCFYISLTSKNWQESQKQCETLSSKLATFSEIYPQSHSYYFLNSLLPNGGSGNSYWTGLSSNKDWKLTDDTQRTRTYAQSSKCNKVHKTWSWWTLESESCRSSLPYICEMTAFRFPD
notes: whole, on cells; also called CD72 receptor
For B2, the binding result in assay [2] is given as “binds”.
